These results are taken from publication PMC3556364.

Where two headings read alike, the source gives them in different places.

As a reminder, the stoichiometry N is the number of molecules, sites or subunits per partner or assembly.

Test [1] concerns the target Azotobacter vinelandii ^NifIscA (Azotobacter vinelandii). Kind of test: SEC. In general terms: SEC sorts molecules by how far they enter the pores of the column.
Test [2] shares this target. Kind of test: SEC. The source holds these as a separate data set.

With “Azotobacter vinelandii ^NifIscA (natural protein)”, the stoichiometry N in test [1] and in test [2] was 2 in each case.
